We go through four molecules from patent publication US20230295226A1 (FLORIDA ATLANTIC UNIVERSITY BOARD OF TRUSTEES, published 2023).

Bridges are numbered along the chain shown (N, C = ends). Where no end group is shown, it is not given here. [ ]: non-standard residue; d: D form.

For experiment [1], the target named is T1, asialofetuin (UniProt P12763 19-359, limits assumed, glycoprotein; desialylated glycans, described as L-fucose bearing).
T1 construct: also called L-fucose bearing asialofetuin; model glycoprotein
T1 sequence (looked up): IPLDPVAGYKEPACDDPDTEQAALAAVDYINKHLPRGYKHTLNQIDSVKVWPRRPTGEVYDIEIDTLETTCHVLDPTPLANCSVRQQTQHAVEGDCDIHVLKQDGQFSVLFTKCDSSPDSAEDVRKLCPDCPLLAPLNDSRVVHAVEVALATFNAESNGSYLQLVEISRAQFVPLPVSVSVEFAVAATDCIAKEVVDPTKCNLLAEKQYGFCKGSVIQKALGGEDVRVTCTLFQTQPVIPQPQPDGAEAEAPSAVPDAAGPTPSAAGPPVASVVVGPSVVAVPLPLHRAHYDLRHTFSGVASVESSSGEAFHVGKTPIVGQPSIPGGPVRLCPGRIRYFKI
The experiment is described as follows: ITC.

The target in experiment [2] is T2, mu opioid receptor (MOR).
T2 construct: see m11 for the human receptor of the library screen
The experiment is described as follows: protein binding radioassay.

Experiment [3] deals with T3, delta opioid receptor (DOR).
T3 construct: the library screen elsewhere used human clones in CHO cells
The experiment is described as follows: protein binding radioassay.

Experiment [4] addresses T1, asialofetuin. Put plainly: ITC, as cited in the text from Table 1; conflicts with Table 1, which prints 6.4 × 10^4 nM for OL and 4.2 × 10^4 nM for DADLE-OL.
For experiment [5], the target named is T4, kappa opioid receptor (KOR).
T4 construct: see m12 for the human receptor of the library screen
The experiment is described as follows: protein binding radioassay.

B1: DADLE-OL (peptide)
peptide: YASPKCFRY[dA]GF[dL]LACT
modifications: disulfide 6-16
Regarding B1, the Kd in experiment [1] was determined as 42 µM; in experiment [2] it was 3.54 µM; in experiment [3], 0.064 µM.

B2: Odorranalectin (OL) (peptide)
peptide: YASPKCFRYPNGVLACT
modifications: disulfide 6-16
notes: Synthetic copy of the natural product; on-resin disulfide formation by I2 oxidation; also called unmodified OL; OL natural product
In the case of B2, the Kd is 42 µM in experiment [4] and 64 µM in experiment [1].

B3: DADLE-OL II (peptide)
peptide: Y[dA]GF[dL]KCFRYPNGVLACT
modifications: disulfide 7-17
Take B3: the dissociation constant Kd in experiment [1] was found to be 33 µM; in experiment [5], 1.08 µM; in experiment [2], 0.123 µM; in experiment [3], 0.275 µM.

B4: Control peptide (scrambled OL sequence) (peptide)
peptide: RVFSLCNATYPYKGACP
modifications: disulfide 6-16
In experiment [1], B4 returned a Kd of 760 µM.
